According to article PMC10321299:

Biological target: SpyCatcher-tagged ferritin
Assay: SDS-PAGE of the covalent conjugate; purified SC-FN and rePO-ST mixed in vitro overnight (12 hours) at 4 °C in molar ratios 1:8 to 1:28; isopeptide bond between SpyTag and SpyCatcher; new band on SDS-PAGE

**Q.** How did the proportion of conjugated ferritin turn out when “SpyTag-tagged rePO (recombinant PcrV-OprI with SpyTag at the C-terminus) (from UniProt G3XD49 28-294; P11221 25-83)” was run?
**A.** The proportion of conjugated ferritin was 70%.
